The record followed here is patent US20220251235A1 (published 2022).

For experiment [1], the target named is T1, MAGEA10 peptide on HLA-A*02:04 (human).
T1 peptide: SLLKFLAKV
The experiment in a line: cytokine release.

Experiment [2] has as its target T2, peptide on HLA-A*02:01 (human).
T2 peptide: KLYGLDWAEL
The experiment in a line: cytokine release.

Experiment [3] addresses T3, MAGEA10 peptide on HLA-A*02:01 (human).
T3 peptide: SLLKFLAKV
The experiment in a line: multimer staining.

B1: MAGE-A10^SLL-TCR (TCR, V domains shown)
Valpha: DQQVKQNSPSLSVQEGRISILNCDYTNSMFDYFLWYKKYPAEGPTFLISISSIKDKNEDGRFTVFLNKSAKHLSLHIVPSQPGDSAVYFCAANSNSGYALNFGKGTSLLVTP
Vbeta: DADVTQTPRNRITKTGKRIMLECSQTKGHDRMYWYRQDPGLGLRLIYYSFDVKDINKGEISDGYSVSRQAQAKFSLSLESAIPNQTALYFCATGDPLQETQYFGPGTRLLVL
On to B1, for which the values for the binding result in experiment [1], in experiment [2] and in experiment [3] were “recognises”, “no recognition” and “recognises”, respectively.
